Source: patent US20250011443A1 (published 2025)
Where a chain is given by its changes, count along the chain named.

T1: SR344 (N-terminal 1st to 344th amino acids of soluble human IL-6R) (human, UniProt P08887 20-344, limits assumed)
T1 construct: also called recombinant soluble human IL-6 receptor; soluble human IL-6 receptor
T1 sequence (looked up): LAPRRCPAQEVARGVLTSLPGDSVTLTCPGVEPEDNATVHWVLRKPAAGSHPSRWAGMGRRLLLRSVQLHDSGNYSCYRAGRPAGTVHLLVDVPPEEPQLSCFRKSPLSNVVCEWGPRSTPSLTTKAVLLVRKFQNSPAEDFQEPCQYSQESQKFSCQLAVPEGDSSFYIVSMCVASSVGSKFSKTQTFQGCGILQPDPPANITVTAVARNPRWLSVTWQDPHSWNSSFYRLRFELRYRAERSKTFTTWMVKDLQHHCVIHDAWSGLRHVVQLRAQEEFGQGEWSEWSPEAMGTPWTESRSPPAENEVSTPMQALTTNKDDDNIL

B1: RDC_23 (antibody, V domains shown)
VH: QVQLQESGPGLVRPSQTLSLTCTVSGYSITSDHAWSWVRQPPGRGLEWIGYISYSGITTYNPSLKSRVTMLRDTSKNQFSLRLSSVTAADTAVYYCARVLARITAMDYWGQGSLVTVSS
VL: DIQMTQSPSSLSASVGDRVTITCRASQDISSYLNWYQQKPGKAPKLLIYYTSRLHSGVPSRFSGSGSGTDFTFTISSLQPEDIATYYCGQGNRLPYTFGQGTKVEIK
notes: also called RDC_5H / RDC_11L
B2: GPC3_H2L2 (antibody, human IgG1, kappa, V domains shown)
VH: QVQLVQSGAEVKKPGASVKVSCKASGYTFTDYEMHWVRQAPGQGLEWMGALDPKTGDTAYSQKFKGRVTLTADKSTSTAYMELSSLTSEDTAVYYCTRFYSYTYWGQGTLVTVSS
VL: DVVMTQSPLSLPVTPGEPASISCRSSQSLVHSNRNTYLHWYLQKPGQSPQLLIYKVSNRFSGVPDRFSGSGSGTDFTLKISRVEAEDVGVYYCSQNTHVPPTFGQGTKLEIKR
B3: GPC3_H3L3 (antibody, human IgG1, kappa, V domains shown)
VH: B2 VH with K19T, V37I, A40P, Q43E, M48I, L51I, Q62E, K63S, K65Q, G66D
VL: B2 VL with V2I, R24Q, S25A, Q27E, L109V, K112E

Experiments:
[1] = molecular target: T1, SR344 (N-terminal 1st to 344th amino …); assay: SPR (Biacore T100), antibody captured on Protein A/G, SR344 as analyte, 37 C
Method: A sensor chip was prepared by immobilizing about 3,000 RU of Protein A/G onto CM5 (Biacore) with the amine coupling method. […] The running buffer used was HBS-EP+, and the flow rate was 20 μl/min. […] After three minutes of interaction, the solution was switched with HBS-EP+(Biacore), and the dissociation phase was monitored for ten minutes. After measurement of the dissociation phase, the sensor chip was regenerated by washing with 10 μl of 10 mM glycine-HCl (pH 1.5). The association, dissociation, and regeneration constituted one analytic cycle. All experiments were carried out at 37° C.
All measurements described hereinafter in the Examples were carried out at 37° C. to kinetically analyze the antigen-antibody reaction using SR344 and protein A/G.

[2] = molecular target: T2, soluble GPC3 core polypeptide (human, UniProt P51654 25-563); assay: competitive ELISA, soluble GPC3 core polypeptide on the plate, competitor biotinylated GPC3-H2L2
T2 construct: also called soluble GPC3 core protein; glypican 3 (antigen)
T2 sequence (P51654 other isoform, or with tags, fused parts or gaps limits assumed): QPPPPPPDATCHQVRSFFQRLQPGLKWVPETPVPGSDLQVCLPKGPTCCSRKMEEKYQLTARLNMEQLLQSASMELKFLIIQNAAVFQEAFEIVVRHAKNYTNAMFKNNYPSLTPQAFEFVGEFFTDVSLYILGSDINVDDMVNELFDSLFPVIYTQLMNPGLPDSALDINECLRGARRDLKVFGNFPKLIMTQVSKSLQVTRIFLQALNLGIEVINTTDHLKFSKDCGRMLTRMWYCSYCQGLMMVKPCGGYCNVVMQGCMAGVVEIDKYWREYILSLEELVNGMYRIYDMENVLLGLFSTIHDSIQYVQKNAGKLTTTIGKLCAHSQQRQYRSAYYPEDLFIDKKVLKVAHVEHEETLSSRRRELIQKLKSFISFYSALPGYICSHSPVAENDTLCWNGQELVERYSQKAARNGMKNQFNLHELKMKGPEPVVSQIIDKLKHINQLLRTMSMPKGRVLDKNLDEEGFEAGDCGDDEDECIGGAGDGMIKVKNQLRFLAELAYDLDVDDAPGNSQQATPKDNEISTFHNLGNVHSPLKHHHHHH
Method: The binding activities of prepared antibodies were determined by competitive ELISA. […] The plates were incubated at 4° C. overnight to immobilize the soluble GPC3 core polypeptide onto the plates. After washing the plates immobilized with the soluble GPC3 core polypeptide three times with washing buffer using SkanWasher 400 (Molecular Devices), 200 μl of blocking buffer was added thereto. The plates were incubated at 4° C. for 30 minutes or more for blocking. The plates immobilized with the soluble GPC3 core polypeptide and blocked were washed three times with washing buffer using SkanWasher 400. […] The plates were incubated at room temperature for one hour, and then washed five times with washing buffer using SkanWasher 400 (Molecular Devices). 100 μl of goat anti streptavidin alkaline phosphatase (Zymed) 20,000-times diluted with substrate buffer was added to each well. The plates were incubated at room temperature for one hour, and then washed five times with washing buffer using SkanWasher 400. Phosphatase Substrate (Sigma) was prepared at 1 mg/ml using substrate buffer, and added to each well (100 μl). The plates were incubated for one hour.

| Binder | fold weaker affinity for SR344 than for rhIL-6sR [1] [fold] | binding result [2] |
| --- | --- | --- |
| B1 | 2 |  |
| B2 |  | binds |
| B3 |  | binds |
